Experimental data published in patent publication US20130156779A1 (GlaxoSmithKline, published 2013).
Read-outs that look alike come from different tables or passages of the source.

Tests used:
Human HER3 receptor [1] = biological target: T1, Human HER3 receptor (human, UniProt P21860 20-1342); assay: cell-based or functional assay
[2] = biological target: T2, Murine HER3 on B16 and B16F10 melanoma cells (murine, UniProt Q61526 20-1339); assay: flow cytometry on B16F10 murine melanoma cells, antibody labelled with a Zenon APC kit [a]
T2 construct: whole, on cells
T2 sequence (Q61526 20-1339, one chain of several): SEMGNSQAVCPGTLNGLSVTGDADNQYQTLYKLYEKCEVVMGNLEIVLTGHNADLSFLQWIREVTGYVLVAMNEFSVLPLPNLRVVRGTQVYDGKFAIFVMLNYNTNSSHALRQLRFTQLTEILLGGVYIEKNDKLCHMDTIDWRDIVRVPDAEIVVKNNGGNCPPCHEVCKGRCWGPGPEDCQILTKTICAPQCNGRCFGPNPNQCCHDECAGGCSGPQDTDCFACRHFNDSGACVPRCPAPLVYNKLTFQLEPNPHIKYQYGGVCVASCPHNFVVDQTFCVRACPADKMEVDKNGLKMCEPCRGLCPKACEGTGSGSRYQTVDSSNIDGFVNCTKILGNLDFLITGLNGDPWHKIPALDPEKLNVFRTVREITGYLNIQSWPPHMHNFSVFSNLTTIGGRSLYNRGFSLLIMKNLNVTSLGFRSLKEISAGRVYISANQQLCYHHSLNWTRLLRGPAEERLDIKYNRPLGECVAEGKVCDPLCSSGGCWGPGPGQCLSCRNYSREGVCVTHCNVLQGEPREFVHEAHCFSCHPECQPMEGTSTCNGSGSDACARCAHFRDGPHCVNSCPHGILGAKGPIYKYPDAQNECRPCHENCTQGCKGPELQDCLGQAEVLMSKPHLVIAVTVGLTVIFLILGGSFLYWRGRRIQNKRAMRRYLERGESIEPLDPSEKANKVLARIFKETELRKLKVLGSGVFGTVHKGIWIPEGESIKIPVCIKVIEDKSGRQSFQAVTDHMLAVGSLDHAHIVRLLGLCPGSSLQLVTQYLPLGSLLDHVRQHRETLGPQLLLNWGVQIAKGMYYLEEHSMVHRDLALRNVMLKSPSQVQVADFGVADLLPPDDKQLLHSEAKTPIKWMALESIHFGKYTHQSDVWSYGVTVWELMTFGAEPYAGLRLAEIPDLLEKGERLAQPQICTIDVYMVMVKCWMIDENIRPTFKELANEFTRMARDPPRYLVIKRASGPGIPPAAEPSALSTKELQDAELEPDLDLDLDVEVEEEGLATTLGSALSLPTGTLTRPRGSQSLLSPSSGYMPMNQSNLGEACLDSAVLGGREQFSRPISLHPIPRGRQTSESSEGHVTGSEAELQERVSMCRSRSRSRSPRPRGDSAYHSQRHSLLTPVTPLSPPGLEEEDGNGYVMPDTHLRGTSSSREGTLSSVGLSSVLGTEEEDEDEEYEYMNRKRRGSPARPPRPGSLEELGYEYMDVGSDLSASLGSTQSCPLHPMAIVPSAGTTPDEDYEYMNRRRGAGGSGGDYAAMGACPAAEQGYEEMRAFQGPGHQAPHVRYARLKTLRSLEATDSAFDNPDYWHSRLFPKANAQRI
Source text: B16F10 ZENON™ labeling kits: [0530] Mouse IgG1 PE—Invitrogen Z25021 [0531] Mouse IgG1 APC—Invitrogen Z25051 [0532] Mouse IgG2b APC—Invitrogen Z25151 Method: Commercially available anti-human EGFR and HER2 antibodies were provided. A commercially available HER3 antibody represented by the provider to recognizes human HER3 was provided. The murine 15D5 antibody, murine 1D9 antibody (M5.1D9.1F5), murine 24H5 antibody (M5.24H5.C2) antibodies were also provided. These antibodies were labeled with either PE or APC using the ZENON™ labeling kits (Invitrogen). 5×10⁶ B 16, or B16F10, murine melanoma cells were added to flow cytometry tubes containing the labeled anti-HER3 antibodies. Cells and antibodies were incubated for 30 minutes on ice in the dark, washed and resuspended in FACS buffer. Cells were then analyzed on a FACSCANTO™ flow cytometer. Data analysis was performed using […]™ software, developed by BD Biosciences. Cell populations were gated using forward vs. side scatter and histograms of fluorescent intensities were generated.

Human HER3 receptor [3] = biological target: T1, Human HER3 receptor; assay: cell-based or functional assay; remark: listed apart in the source
Human HER3 receptor [4] = biological target: T1, Human HER3 receptor; assay: cell-based or functional assay; remark: listed apart in the source
[5] = biological target: T3, Full-length human HER3 extracellular domain (ECD) (human, UniProt P21860 20-643); assay: affinity summary table, method not given
T3 construct: also called human HER3 ECD; HER-3 ECD full length
T3 sequence (P21860 20-643): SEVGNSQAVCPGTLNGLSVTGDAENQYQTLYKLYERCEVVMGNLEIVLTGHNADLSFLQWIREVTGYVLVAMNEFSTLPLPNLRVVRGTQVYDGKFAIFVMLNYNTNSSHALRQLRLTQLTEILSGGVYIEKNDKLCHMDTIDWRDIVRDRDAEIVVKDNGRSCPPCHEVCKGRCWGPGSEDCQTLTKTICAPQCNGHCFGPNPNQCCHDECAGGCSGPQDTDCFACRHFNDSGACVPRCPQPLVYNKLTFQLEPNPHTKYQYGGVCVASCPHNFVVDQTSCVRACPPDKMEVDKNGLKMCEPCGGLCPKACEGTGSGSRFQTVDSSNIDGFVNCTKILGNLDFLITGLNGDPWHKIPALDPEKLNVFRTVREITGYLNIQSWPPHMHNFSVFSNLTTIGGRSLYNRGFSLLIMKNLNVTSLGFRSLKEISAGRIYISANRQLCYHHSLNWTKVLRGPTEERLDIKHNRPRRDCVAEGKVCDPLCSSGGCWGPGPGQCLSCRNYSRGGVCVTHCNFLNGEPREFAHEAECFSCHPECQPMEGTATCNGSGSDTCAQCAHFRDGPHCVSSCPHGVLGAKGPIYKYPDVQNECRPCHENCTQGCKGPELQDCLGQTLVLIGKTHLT

[6] = biological target: T4, Human HER3 ECD domain III (human, UniProt P21860 330-495); assay: affinity summary table, method not given
T4 construct: also called D3; Domain 3
T4 sequence (P21860 330-495): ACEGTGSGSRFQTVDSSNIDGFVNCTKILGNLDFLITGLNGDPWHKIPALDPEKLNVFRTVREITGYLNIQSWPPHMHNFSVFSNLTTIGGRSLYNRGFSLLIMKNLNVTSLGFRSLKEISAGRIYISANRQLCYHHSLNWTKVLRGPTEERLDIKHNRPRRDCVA

[7] = biological target: T3, Full-length human HER3 extracellular …; assay: BIACORE 2000 SPR, mAb captured, HER3 protein as analyte, 25 C
Description: (§1) Mouse monoclonal antibodies were analysed using rabbit anti-mouse (RAM) IgG (GE Healthcare BR-1008-38) covalently coupled to a BIACORE™ CM5 chip (GE HEalthcare BR-1000-14) by primary amine chemistry (NHS/EDC activated) (GE Healthcare amine coupling kit BR-1000-50). Chimeric and humanized competitor monoclonal antibodies were analyzed using anti-human, Fc specific monoclonal (GE Healthcare BR-1008-39) similarly coupled. Each chip was also prepared with a reference surface to which no capture reagent antibody is coupled. Sensorgrams for cycles run with differing analyte concentrations are acquired for kinetic analysis. A cycle consists of capturing the monoclonal on the surface, a short stabilization period with flowing run buffer followed by binding of a defined concentration of analyte (ECD or sub-domain protein). Injection of analyte for surface binding (3-4 minutes) yields the association part of curve. This is followed by buffer only flow (3-4 minutes) which allows recording of dissociation data.
(§2) The general method for affinity analysis is as follows. First, chips were prepared and tested for reasonance units (RU) captured for several monoclonal antibody concentrations. Kinetic cycles were then run in which monoclonal antibody was captured to a level of approximately 100RU, analyte protein was allowed to bind then dissociate and the surface was regenerated to remove all but covalently coupled protein. RAM chips were regenerated with capture kit supplied 100 mM glycine pH1.7 and anti-human chips with capture kit supplied 3M MgCl₂. […] Several buffer cycles were run prior to analyte protein to ensure cycle consistency and in some experiments a buffer cycle is used a “double reference[.]” Analytes used were human full length HER3 extra cellular domain (ECD), separate sub-domains of the extracellular portion of human HER3 (D1, D2, D3, D4), or combination HER3 domain proteins (D1-2 and D2-3).

[8] = biological target: T5, Human HER3 ECD domain 2-3 protein (human, UniProt P21860 184-495); assay: as above
T5 construct: also called D2-3; sub-domains 2-3
T5 sequence (P21860 184-495): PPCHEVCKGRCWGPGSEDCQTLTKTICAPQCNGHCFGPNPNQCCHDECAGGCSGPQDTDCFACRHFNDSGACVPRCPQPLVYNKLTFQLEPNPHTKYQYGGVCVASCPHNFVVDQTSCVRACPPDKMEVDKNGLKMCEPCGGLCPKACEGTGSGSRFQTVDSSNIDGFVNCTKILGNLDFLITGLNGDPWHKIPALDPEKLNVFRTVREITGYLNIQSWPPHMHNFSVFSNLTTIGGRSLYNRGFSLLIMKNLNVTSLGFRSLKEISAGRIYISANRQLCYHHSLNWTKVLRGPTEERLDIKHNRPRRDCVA
Description: as §1, §2

[9] = biological target: T4, Human HER3 ECD domain III; assay: as above
Description: as §1, §2

Human HER3 ECD domain II [10] = biological target: T6, Human HER3 ECD domain II (human, UniProt P21860 184-329); assay: DELFIA, plate coated with HER3 Domain II 1ug/ml
T6 construct: also called D2; Domain 2
T6 sequence (P21860 184-329): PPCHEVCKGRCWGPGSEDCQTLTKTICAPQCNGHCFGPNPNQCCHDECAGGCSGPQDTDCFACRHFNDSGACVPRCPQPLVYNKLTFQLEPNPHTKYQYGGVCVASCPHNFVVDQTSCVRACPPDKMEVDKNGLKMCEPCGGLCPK
Description: (§3) Dissociation Enhanced Lanthanide Fluorescence Immunoassay (DELFIA) for detection of the anti-HER3 antibodies to HER3 extracellular domain (ECD) was used. The DELFIA procedures were as follows: white Maxisorp 96-well plates (Nunc #437796) were coated with 100 ul/well of 1 ug/ml HER-3 ECD full length or HER3Domain I, II, III and IV in 0.1M carbonate buffer pH 9.5 overnight at 4° C. These plates were blocked with casein in TBS (Thermo Scientific #37532 lot#JD121074). The neat hybridoma supernatant, or the purified anti-HER3 antibodies diluted in Perkin Elmer #4002-0010 Assay Buffer from 10 ug/ml (or 100 ug/ml) to 0.01 ug/ml, or the PK serum samples with a minimum of 3 dilutions (100 ul/well) were added to the plate. These samples were incubated for 2 hours at room temperature while on a plate shaker or overnight at 4° C. […] The plate was washed 4 times with tris-buffer plus 0.05% tween-20 (Perkin Elmer #4010-0010) on a BIOTEK™ plate washer following each antibody incubation step. 100 ul/well of DELFIA enhancement solution (Perkin Elmer 1244-105) was added for 5 minutes at room temperature. […] Antibody binding was recorded as europium counts per well.

Human HER3 receptor [11] = biological target: T1, Human HER3 receptor; assay: cell-based or functional assay; remark: listed apart in the source
[12] = biological target: T3, Full-length human HER3 extracellular …; assay: BIACORE SPR, mAb captured on protein A, ECD as analyte, 25 C
Description: (§4) Protein A was immobilised on a CM5 chip by primary amine coupling to a level of ˜1300 resonance units (RU′s), humanized antibodies were then captured on this chip, All antibodies were captured to a similar level (100-200 RU's). […] Alternatively, the full-length, rat HER3 ECD or the full-length cynomolgus monkey ECD were passed over the chip at 10 nM, 5 nM, 2.5 nM, 1:25nM, 0.625 nM and 0.3125nM. An injection of buffer alone was used to double reference the binding curves as indicated in Example 1. Regeneration of this surface was achieved using 10 mM Glycine buffer pH 1.5. The binding data was fitted to the 1:1 model using BIACORE™ Evaluation software. Runs were carried out at 25° C. on a BIACORE™ T3000 using HBS-EP as running buffer.

[13] = biological target: T7, Full-length rat HER3 extracellular domain (ECD) (rat, UniProt Q62799 20-643); assay: as above
T7 construct: extracellular domain; also called Rat HER3 ECD
T7 sequence (Q62799 20-643): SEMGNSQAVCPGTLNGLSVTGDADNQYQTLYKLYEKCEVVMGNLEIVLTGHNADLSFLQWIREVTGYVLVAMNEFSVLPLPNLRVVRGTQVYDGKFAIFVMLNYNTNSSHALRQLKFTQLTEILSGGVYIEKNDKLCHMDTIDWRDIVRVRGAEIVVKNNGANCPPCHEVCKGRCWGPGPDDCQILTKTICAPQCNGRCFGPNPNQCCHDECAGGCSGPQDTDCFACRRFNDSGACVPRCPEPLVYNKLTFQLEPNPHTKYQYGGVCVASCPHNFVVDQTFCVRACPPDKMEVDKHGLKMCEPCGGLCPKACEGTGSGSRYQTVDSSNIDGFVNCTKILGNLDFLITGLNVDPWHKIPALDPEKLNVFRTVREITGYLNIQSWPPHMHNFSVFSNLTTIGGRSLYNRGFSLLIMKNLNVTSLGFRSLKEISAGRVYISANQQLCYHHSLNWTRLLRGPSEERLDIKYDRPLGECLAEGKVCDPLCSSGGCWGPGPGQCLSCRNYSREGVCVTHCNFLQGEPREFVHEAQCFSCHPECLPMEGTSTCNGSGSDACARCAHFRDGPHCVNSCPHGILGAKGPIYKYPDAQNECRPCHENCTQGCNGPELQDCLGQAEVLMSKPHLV
Description: as §4

[14] = biological target: T3, Full-length human HER3 extracellular …; assay: DELFIA (europium time-resolved fluorescence), plate coated with HER3 ECD Full Length 1ug/ml, antibody titrated 0.001-10 ug/ml
Description: as §3

Human HER3 ECD domain II [15] = biological target: T6, Human HER3 ECD domain II; assay: DELFIA, plate coated with HER3 Domain II 1ug/ml; remark: listed apart in the source
[16] = biological target: T3, Full-length human HER3 extracellular …; assay: DELFIA (europium time-resolved fluorescence), plate coated with HER3 ECD Full Length 1ug/ml, antibody titrated 0.001-10 ug/ml; remark: listed apart in the source

T1 sequence (P21860 20-1342 limits assumed): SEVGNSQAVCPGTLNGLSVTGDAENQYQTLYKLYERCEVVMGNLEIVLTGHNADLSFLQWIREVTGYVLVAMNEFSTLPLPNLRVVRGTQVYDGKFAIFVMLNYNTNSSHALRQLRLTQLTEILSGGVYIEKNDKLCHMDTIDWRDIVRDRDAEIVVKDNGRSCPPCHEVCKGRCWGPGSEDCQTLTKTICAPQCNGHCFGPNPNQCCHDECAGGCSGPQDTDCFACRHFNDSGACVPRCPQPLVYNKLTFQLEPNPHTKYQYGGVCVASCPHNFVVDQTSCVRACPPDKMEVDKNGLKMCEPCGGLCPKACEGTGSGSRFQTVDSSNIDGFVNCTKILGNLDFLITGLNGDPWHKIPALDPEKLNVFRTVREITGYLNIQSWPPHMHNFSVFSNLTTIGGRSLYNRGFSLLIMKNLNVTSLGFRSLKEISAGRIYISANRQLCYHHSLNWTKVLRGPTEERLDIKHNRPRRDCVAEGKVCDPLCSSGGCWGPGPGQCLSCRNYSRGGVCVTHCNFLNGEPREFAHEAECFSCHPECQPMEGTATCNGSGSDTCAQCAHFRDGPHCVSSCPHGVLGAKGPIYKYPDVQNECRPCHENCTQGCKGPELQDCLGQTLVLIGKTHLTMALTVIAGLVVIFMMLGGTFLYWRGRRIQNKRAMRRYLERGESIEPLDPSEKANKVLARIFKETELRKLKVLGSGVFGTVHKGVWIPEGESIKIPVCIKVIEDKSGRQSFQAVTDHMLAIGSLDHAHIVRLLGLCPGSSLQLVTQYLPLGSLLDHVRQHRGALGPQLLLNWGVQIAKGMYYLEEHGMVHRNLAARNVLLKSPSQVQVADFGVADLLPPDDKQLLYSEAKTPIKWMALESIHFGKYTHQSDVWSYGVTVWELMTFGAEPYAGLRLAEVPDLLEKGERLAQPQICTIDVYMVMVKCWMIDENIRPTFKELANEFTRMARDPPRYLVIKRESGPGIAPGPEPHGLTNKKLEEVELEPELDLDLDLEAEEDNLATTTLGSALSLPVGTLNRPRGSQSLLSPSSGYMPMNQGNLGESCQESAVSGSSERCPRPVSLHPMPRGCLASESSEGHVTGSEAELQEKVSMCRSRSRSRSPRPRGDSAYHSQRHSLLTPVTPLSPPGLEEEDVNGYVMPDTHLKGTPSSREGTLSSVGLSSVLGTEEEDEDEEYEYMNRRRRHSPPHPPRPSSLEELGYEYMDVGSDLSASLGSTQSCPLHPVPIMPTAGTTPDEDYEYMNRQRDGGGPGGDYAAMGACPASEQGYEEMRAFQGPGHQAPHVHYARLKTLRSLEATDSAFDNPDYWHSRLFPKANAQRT

Binder	Phospho-AKT ELISA IC50, heregulin induced, BxPC3 cells (Human HER3 receptor [3]) [µg/mL]	Phospho-HER3 ELISA IC50, heregulin induced, BxPC3 cells (Human HER3 receptor [4]) [µg/mL]	Phospho-HER3 ELISA IC50, heregulin induced, CHL-1 cells (Human HER3 receptor [4]) [µg/mL]	Phospho-HER3 ELISA IC50, heregulin induced, N87 cells (Human HER3 receptor [4]) [µg/mL]	Phospho-HER3 ELISA IC50, heregulin induced, SK-BR-3 cells (Human HER3 receptor [4]) [µg/mL]	binding result (Human HER3 ECD domain II [10])	Kd [12] [nM]	koff [12] [s⁻¹]	kon [12] [M⁻¹ s⁻¹]	also measured
Murine 1D9 antibody (M5.1D9.1F5) (antibody, IgG2b, V domains shown, Mouse monoclonal, IgG2b; also called m1D9) VH: QVQLQQPGAELVRPGTSVKLSCKASGYTFTSYWMHWVKQRPGQGLEWIGVIDPSDGYSHYNQKFKGKATLTVDTSSSTAYMQLSSLTSEDSAVYYCAGGLAGTLDYWGQGTTLTVSS VL: DVLMTQTPLSLPVSLGDQASISCRSSQSIVHSSGNTYLQWFLQKPGQSPKLLISKVSNRFSGVPDRFSGSGSGTDFTLRISRVEAEDLGLYYCFQGSHVPWTFGGGTKLEIK	0.0151	0.0068	0.0406	0.0204	0.0032	no binding (tested: 10 ug/ml)	–	–	–	Phospho-HER3 ELISA IC50, betacellulin induced, SK-BR-3 cells (Human HER3 receptor [1]): 0.0036 µg/mL; Phospho-HER3 ELISA IC50, epidermal growth factor induced, SK-BR-3 cells (Human HER3 receptor [1]): 0.003 µg/mL; Phospho-HER3 ELISA IC50, heregulin induced, SK-BR-3 cells (Human HER3 receptor [1]): 0.0032 µg/mL; binding result [2]: binds; Phospho-HER3 ELISA IC50, heregulin induced, BT-474 cells (Human HER3 receptor [4]): 0.0223 µg/mL; Phospho-HER3 ELISA IC50, heregulin induced, MCF7 cells (Human HER3 receptor [4]): 0.0104 µg/mL; Kd [5]: ~1 nM; Kd [6]: 0.39 nM; Kd [7]: 0.82 nM; kon [7]: 355000 M⁻¹ s⁻¹; Kd [8]: 0.47 nM; kon [8]: 893000 M⁻¹ s⁻¹; Kd [9]: 0.38 nM; kon [9]: 2.54e+06 M⁻¹ s⁻¹; Phospho-HER3 … IC50, heregulin induced, CHO EGFR + HER3 (Human HER3 receptor [11]): 0.0435 µg/mL; Phospho-HER3 … IC50, heregulin induced, CHO HER4 + HER3 (Human HER3 receptor [11]): 0.13 µg/mL
Humanized 1D9 POTELLIGENT™ antibody (antibody, human IgG1, kappa, non-fucosylated glycans on the marked N* residue, Same chains as the humanized 1D9 antibody, expressed in FUT8- cells; also called humanized 1D9 H6L2 POTELLIGENT antibody) heavy: not shown light: DIQMTQSPSSLSASVGDRVTITCRSSQSIVHSSGNTYLQWFQQKPGKAPKLLIYKVSNRFSGVPSRFSGSGSGTDFTLTISSLQPEDFAVYYCFQGSHVPWTFGQGTKLEIKRTVAAPSVFIFPPSDEQLKSGTASVVCLLNNFYPREAKVQWKVDNALQSGNSQESVTEQDSKDSTYSLSSTLTLSKADYEKHKVYACEVTHQGLSSPVTKSFNRGEC	0.0228	0.0056	0.0282	0.0175	0.0034	no binding (tested: 10 ug/ml)	2.01	0.00223	1.11e+06	Kd [13]: 3.37 nM; koff [13]: 0.0011 s⁻¹; kon [13]: 326000 M⁻¹ s⁻¹; EC50 (read off the curve) [14]: ~0.03 µg/mL
Humanized 1D9 antibody (antibody, human IgG1, kappa, Expressed in FUT8+ cells; also called HZ1D9; H6L2) heavy: not shown light: DIQMTQSPSSLSASVGDRVTITCRSSQSIVHSSGNTYLQWFQQKPGKAPKLLIYKVSNRFSGVPSRFSGSGSGTDFTLTISSLQPEDFAVYYCFQGSHVPWTFGQGTKLEIKRTVAAPSVFIFPPSDEQLKSGTASVVCLLNNFYPREAKVQWKVDNALQSGNSQESVTEQDSKDSTYSLSSTLTLSKADYEKHKVYACEVTHQGLSSPVTKSFNRGEC	0.0244	0.0116	0.0365	0.0218	0.0036	–	4.5	0.00184	410000	binding result (Human HER3 ECD domain II [15]): no binding (tested: 10 ug/ml); EC50 (read off the curve) [16]: ~0.04 µg/mL
